Reference: PMC4382112

What was measured:
[1] = molecular target: soluble murine EPCR with a C-terminal myc-His tag (murine) (UniProt Q64695); assay: ELISA; plate binding assay: soluble murine EPCR (5 μg/ml) captured by immobilised anti-myc monoclonal antibody; murine protein C variants 0 to 1200 nM in TBS-1% BSA, 5mM CaCl2, 0.6mM MgCl2, 2 hours at 37°C with shaking; detected with sheep anti-murine protein C; one-site fit, apparent KD (KD(app)); n = 3
Chain of UniProt Q64695 (Q64695 18-214): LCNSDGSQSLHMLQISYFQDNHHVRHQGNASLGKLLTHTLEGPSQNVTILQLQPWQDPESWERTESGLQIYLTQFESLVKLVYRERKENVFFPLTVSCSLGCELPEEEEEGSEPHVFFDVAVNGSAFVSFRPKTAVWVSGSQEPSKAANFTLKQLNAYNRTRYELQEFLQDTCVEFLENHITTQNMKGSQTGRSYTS

| Kd [1] [µM] | inactivation of 20nM human APC variant by 200nM PCI at 37°C, residual APC activity on S-2366 over 0–20 minutes; half-life (human APC(5A) (human)) [min] | Molecule |
| --- | --- | --- |
| 0.129 | – | murine protein C(S360A) (natural protein) |
| 0.0943 | – | plasma-derived murine protein C (natural protein) |
| 0.112 | – | recombinant murine wt protein C (natural protein) |
| – | 4 | human recombinant protein C inhibitor (PCI) (natural protein) EMKKRVEDLHVGATVAPSSRRDFTFDLYRALASAAPSQSIFFSPVSISMSLAMLSLGAGSSTKMQILEGLGLNLQKSSEKELHRGFQQLLQELNQPRDGFQLSLGNALFTDLVVDLQDTFVSAMKTLYLADTFPTNFRDSAGAMKQINDYVAKQTKGKIVDLLKNLDSNAVVIMVNYIFFKAKWETSFNHKGTQEQDFYVTSETVVRVPMMSREDQYHYLLDRNLSCRVVGVPYQGNATALFILPSEGKMQQVENGLSEKTLRKWLKMFKKRQLELYLPKFSIEGSYQLEKVLPSLGISNVFTSHADLSGISNHSNIQVSEMVHKAVVEVDESGTRAAAATGTIFTFRSARLNSQRLVFNRPFLMFIVDNNILFLGKVNRP |
